# In patent US20220098307A1 (WUHAN YZY BIOPHARMA, published 2022):
# Substitutions are numbered along the chain they refer to. Names may count otherwise.
# T1: human CEA (human, UniProt P06731 35-685)
# T1 sequence: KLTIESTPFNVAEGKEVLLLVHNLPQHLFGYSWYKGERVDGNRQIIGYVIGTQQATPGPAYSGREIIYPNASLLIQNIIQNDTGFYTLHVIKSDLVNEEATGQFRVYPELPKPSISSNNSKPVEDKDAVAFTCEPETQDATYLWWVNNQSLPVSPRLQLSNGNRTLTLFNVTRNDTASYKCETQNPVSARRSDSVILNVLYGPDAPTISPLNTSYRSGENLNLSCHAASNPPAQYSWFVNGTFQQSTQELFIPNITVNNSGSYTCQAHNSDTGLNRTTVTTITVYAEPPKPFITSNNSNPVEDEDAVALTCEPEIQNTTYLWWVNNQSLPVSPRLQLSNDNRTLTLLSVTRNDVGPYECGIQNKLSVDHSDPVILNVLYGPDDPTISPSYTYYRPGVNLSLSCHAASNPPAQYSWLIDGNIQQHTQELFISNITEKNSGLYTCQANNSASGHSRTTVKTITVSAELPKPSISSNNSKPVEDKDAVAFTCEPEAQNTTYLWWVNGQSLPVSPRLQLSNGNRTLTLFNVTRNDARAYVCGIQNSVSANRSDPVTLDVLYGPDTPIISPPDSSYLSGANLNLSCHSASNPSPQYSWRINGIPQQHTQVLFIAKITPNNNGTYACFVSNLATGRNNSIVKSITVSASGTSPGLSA
# T2: Human BCMA (human, UniProt Q02223 1-54)
# T2 sequence: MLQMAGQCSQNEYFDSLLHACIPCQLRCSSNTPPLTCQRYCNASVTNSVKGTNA
# B1: CEA-M3-WT (bispecific antibody)
# fusion heavy: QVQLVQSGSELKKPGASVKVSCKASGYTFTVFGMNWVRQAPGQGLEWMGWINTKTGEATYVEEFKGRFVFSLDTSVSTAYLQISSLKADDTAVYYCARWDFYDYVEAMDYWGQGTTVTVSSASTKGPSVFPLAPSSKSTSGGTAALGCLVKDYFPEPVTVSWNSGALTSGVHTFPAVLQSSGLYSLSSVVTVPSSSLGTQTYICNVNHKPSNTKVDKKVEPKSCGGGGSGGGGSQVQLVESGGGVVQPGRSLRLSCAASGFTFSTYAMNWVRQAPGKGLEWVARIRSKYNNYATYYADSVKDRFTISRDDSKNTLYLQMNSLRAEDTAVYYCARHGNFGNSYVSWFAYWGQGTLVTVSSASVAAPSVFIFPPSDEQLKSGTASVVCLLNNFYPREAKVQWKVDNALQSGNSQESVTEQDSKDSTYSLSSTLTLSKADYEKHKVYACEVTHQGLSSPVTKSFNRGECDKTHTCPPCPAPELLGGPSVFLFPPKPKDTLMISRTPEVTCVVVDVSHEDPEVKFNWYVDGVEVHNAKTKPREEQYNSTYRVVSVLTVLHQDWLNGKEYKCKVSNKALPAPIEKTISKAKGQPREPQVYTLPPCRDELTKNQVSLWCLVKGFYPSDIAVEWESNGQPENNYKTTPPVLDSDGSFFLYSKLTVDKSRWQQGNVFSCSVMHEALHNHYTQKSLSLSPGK
# cross light: QTVVTQEPSLTVSPGGTVTLTCRSSTGAVTTSNYANWVQQKPGQAPRGLIGGTNKRAPGVPARFSGSLLGGKAALTLSGVQPEDEAEYYCALWYSNLWVFGGGTKVEIKSSASTKGPSVFPLAPSSKSTSGGTAALGCLVKDYFPEPVTVSWNSGALTSGVHTFPAVLQSSGLYSLSSVVTVPSSSLGTQTYICNVNHKPSNTKVDKKVEPKSC
# heavy: QVQLVQSGSELKKPGASVKVSCKASGYTFTVFGMNWVRQAPGQGLEWMGWINTKTGEATYVEEFKGRFVFSLDTSVSTAYLQISSLKADDTAVYYCARWDFYDYVEAMDYWGQGTTVTVSSASTKGPSVFPLAPSSKSTSGGTAALGCLVKDYFPEPVTVSWNSGALTSGVHTFPAVLQSSGLYSLSSVVTVPSSSLGTQTYICNVNHKPSNTKVDKKVEPKSCDKTHTCPPCPAPELLGGPSVFLFPPKPKDTLMISRTPEVTCVVVDVSHEDPEVKFNWYVDGVEVHNAKTKPREEQYNSTYRVVSVLTVLHQDWLNGKEYKCKVSNKALPAPIEKTISKAKGQPREPQVCTLPPSRDELTKNQVSLSCAVKGFYPSDIAVEWESNGQPENNYKTTPPVLDSDGSFFLVSKLTVDKSRWQQGNVFSCSVMHEALHNRFTQKSLSLSPGK
# light: DIQMTQSPSSLSASVGDRVTITCKASQNVGTNVAWYQQKPGKAPKLLIYSASYRYSGVPSRFSGSGSGTDFTFTISSLQPEDIATYYCHQYYTYPLFTFGQGTKVEIKRTVAAPSVFIFPPSDEQLKSGTASVVCLLNNFYPREAKVQWKVDNALQSGNSQESVTEQDSKDSTYSLSSTLTLSKADYEKHKVYACEVTHQGLSSPVTKSFNRGEC
# notes: structure 3; CEA x CD3; CH2 WT; copies: 1 + 1 + 1 + 2
# B2: CEA-M3-AAG (bispecific antibody)
# fusion heavy: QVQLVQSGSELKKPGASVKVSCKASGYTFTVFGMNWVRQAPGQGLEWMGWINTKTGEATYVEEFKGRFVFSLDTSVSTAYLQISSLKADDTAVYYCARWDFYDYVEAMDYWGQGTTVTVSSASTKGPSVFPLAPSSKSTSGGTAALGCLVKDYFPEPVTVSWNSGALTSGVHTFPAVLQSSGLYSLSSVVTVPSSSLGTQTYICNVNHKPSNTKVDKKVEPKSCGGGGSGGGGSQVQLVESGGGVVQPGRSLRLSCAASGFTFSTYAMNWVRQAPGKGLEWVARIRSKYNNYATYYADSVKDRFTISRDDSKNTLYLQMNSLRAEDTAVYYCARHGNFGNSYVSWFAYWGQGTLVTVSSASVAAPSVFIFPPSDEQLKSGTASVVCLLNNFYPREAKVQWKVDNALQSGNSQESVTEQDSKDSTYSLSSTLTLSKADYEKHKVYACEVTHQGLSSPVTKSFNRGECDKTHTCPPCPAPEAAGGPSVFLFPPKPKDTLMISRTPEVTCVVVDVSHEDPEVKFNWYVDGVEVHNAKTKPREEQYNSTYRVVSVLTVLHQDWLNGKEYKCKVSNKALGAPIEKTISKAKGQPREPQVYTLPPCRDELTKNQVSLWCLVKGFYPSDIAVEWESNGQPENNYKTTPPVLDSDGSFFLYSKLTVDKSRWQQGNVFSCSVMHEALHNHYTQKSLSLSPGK
# cross light: B1 cross light
# heavy: B1 heavy with L238A, L239A, P333G
# light: B1 light
# notes: structure 3; CEA x CD3; CH2 AAG; copies: 1 + 1 + 1 + 2
# B3: CEA-M3-NA (bispecific antibody, human IgG1, kappa, N297A)
# fusion heavy: QVQLVQSGSELKKPGASVKVSCKASGYTFTVFGMNWVRQAPGQGLEWMGWINTKTGEATYVEEFKGRFVFSLDTSVSTAYLQISSLKADDTAVYYCARWDFYDYVEAMDYWGQGTTVTVSSASTKGPSVFPLAPSSKSTSGGTAALGCLVKDYFPEPVTVSWNSGALTSGVHTFPAVLQSSGLYSLSSVVTVPSSSLGTQTYICNVNHKPSNTKVDKKVEPKSCGGGGSGGGGSQVQLVESGGGVVQPGRSLRLSCAASGFTFSTYAMNWVRQAPGKGLEWVARIRSKYNNYATYYADSVKDRFTISRDDSKNTLYLQMNSLRAEDTAVYYCARHGNFGNSYVSWFAYWGQGTLVTVSSASVAAPSVFIFPPSDEQLKSGTASVVCLLNNFYPREAKVQWKVDNALQSGNSQESVTEQDSKDSTYSLSSTLTLSKADYEKHKVYACEVTHQGLSSPVTKSFNRGECDKTHTCPPCPAPELLGGPSVFLFPPKPKDTLMISRTPEVTCVVVDVSHEDPEVKFNWYVDGVEVHNAKTKPREEQYASTYRVVSVLTVLHQDWLNGKEYKCKVSNKALPAPIEKTISKAKGQPREPQVYTLPPCRDELTKNQVSLWCLVKGFYPSDIAVEWESNGQPENNYKTTPPVLDSDGSFFLYSKLTVDKSRWQQGNVFSCSVMHEALHNHYTQKSLSLSPGK
# cross light: B1 cross light
# heavy: B1 heavy with N301A
# light: B1 light
# notes: structure 3; CEA x CD3; CH2 N297A; copies: 1 + 1 + 1 + 2
# B4: CEA-M3-FES (bispecific antibody, human IgG1, kappa)
# fusion heavy: B3 fusion heavy with L480F, L481E, A543N, P577S
# cross light: B1 cross light
# heavy: B1 heavy with L238F, L239E, P335S
# light: B1 light
# notes: structure 3; CEA x CD3; CH2 FES; copies: 1 + 1 + 1 + 2
# B5: BCMA-M2-DG2 (bispecific antibody, human IgG1, kappa)
# chain: QLQLQESGPGLVKPSETLSLTCTVSGGSISSGSYFWGWIRQPPGKGLEWIGSIYYSGITYYNPSLKSRVTISVDTSKNQFSLKLSSVTAADTAVYYCARHDGAVAGLFDYWGQGTLVTVSSASTKGPSVFPLAPSSKSTSGGTAALGCLVKDYFPEPVTVSWNSGALTSGVHTFPAVLQSSGLYSLSSVVTVPSSSLGTQTYICNVNHKPSNTKVDKKVEPKSCDKTHTGGGSAAAQVQLVESGGGVVQPGRSLRLSCAASGFTFSTYAMNWVRQAPGKGLEWVARIRSKYNNYATYYADSVKDRFTISRDDSKNTLYLQMNSLRAEDTAVYYCARHGNFGNSYVSWFAYWGQGTLVTVSSGGGGSGGGGSGGGGSQTVVTQEPSLTVSPGGTVTLTCRSSTGAVTTSNYANWVQQKPGQAPRGLIGGTNKRAPGVPARFSGSLLGGKAALTLSGVQPEDEAEYYCALWYSNLWVFGGGTKVEIKGGGGSDKTHTCPPCPAPPVAGPSVFLFPPKPKDTLMISRTPEVTCVVVAVSHEDPEVQFNWYVDGVEVHNAKTKPREEQFNSTFRVVSVLTVVHQDWLNGKEYKCKVSNKGLPAPIEKTISKTKGQPREPQVYTLPPCRDELTKNQVSLWCLVKGFYPSDIAVEWESNGQPENNYKTTPPVLDSDGSFFLYSKLTVDKSRWQQGNVFSCSVMHEALHNHYTQKSLSLSPGK
# heavy: QLQLQESGPGLVKPSETLSLTCTVSGGSISSGSYFWGWIRQPPGKGLEWIGSIYYSGITYYNPSLKSRVTISVDTSKNQFSLKLSSVTAADTAVYYCARHDGAVAGLFDYWGQGTLVTVSSASTKGPSVFPLAPSSKSTSGGTAALGCLVKDYFPEPVTVSWNSGALTSGVHTFPAVLQSSGLYSLSSVVTVPSSSLGTQTYICNVNHKPSNTKVDKKVEPKSCDKTHTCPPCPAPPVAGPSVFLFPPKPKDTLMISRTPEVTCVVVAVSHEDPEVQFNWYVDGVEVHNAKTKPREEQFNSTFRVVSVLTVVHQDWLNGKEYKCKVSNKGLPAPIEKTISKTKGQPREPQVCTLPPSRDELTKNQVSLSCAVKGFYPSDIAVEWESNGQPENNYKTTPPVLDSDGSFFLVSKLTVDKSRWQQGNVFSCSVMHEALHNRFTQKSLSLSPGK
# light: SYVLTQPPSVSVAPGQTARITCGGNNIGSKSVHWYQQPPGQAPVVVVYDDSDRPSGIPERFSGNSNGNTATLTISRVEAGDEAVYYCQVWDSSSDHVVFGGGTKLTVLRTVAAPSVFIFPPSDEQLKSGTASVVCLLNNFYPREAKVQWKVDNALQSGNSQESVTEQDSKDSTYSLSSTLTLSKADYEKHKVYACEVTHQGLSSPVTKSFNRGEC
# notes: structure 2; BCMA x CD3; CH2 DG2CH2
# B6: BCMA-M2-GG2 (bispecific antibody, human IgG1, kappa)
# chain: B5 chain with C499G, A534D
# heavy: B5 heavy with C233G, A268D
# light: B5 light
# notes: structure 2; BCMA x CD3; CH2 GG2CH2
# B7: BCMA-M2-DG2D (bispecific antibody, human IgG1, kappa)
# chain: B5 chain with D539A
# heavy: B5 heavy with D273A
# light: B5 light
# notes: structure 2; BCMA x CD3; CH2 DG2DCH2
# B8: BCMA-M2-G2D (bispecific antibody, human IgG1, kappa)
# chain: B5 chain with A534D, D539A
# heavy: B5 heavy with A268D, D273A
# light: B5 light
# notes: structure 2; BCMA x CD3; CH2 G2DCH2
# B9: BCMA-M2-PG2 (bispecific antibody, human IgG1, kappa)
# chain: B5 chain with C499P, A534D
# heavy: B5 heavy with C233P, A268D
# light: B5 light
# notes: structure 2; BCMA x CD3; CH2 PG2CH2
# B10: BCMA-M2-SG2 (bispecific antibody, human IgG1, kappa)
# chain: B5 chain with C499S, A534D
# heavy: B5 heavy with C233S, A268D
# light: B5 light
# notes: structure 2; BCMA x CD3; CH2 SG2CH2
# Target: T1, human CEA
# Experiment: flow cytometry, human tumor cells (CEA+)
# Description: (§1) 1) Cell preparation: T cells isolated from CD3-positive human whole blood were used for a CD3 end affinity detection of multifunctional antibody molecule; positive tumor cells of corresponding antigen were used for detecting affinity of tumor antigen; for example, CD38-positive MM. 1S cells (purchased from the Cell Resource Center of Shanghai Institutes for Biological Sciences, Chinese Academy of Sciences) or RPMI 8226 cells (purchased from the Cell Resource Center of Shanghai Institutes for Biological Sciences, Chinese Academy of Sciences) were used for CD38 antigen detection, and PD-L1 positive H358 cells (purchased from the Cell Resource Center of Shanghai Institutes for Biological Sciences, Chinese Academy of Sciences) were used for PD-L1 antigen detection, and so on. The cells were resuspended with 1% FBS-PBS, adjusted to a density of 4×10⁶/ml, and 50 μl of cells were taken from each well, and then plated at 2×10⁵ per well. Cell plating was operated on ice
# (§2) 2) Addition of the antibody: according to the experimental design, the antibody was diluted gradually, and dilution of antibody was operated on ice. For example, the initial concentration of antibody for dilution was 3000 nM, and the antibody was diluted by 3 times with 11 concentration gradients. The diluted antibody was added to a cell well at 50 μl per well, mixed well, and shaked and incubated at 4° C. 1100 rpm/min for 2 h; after washing, the cells were resuspend in 1% FBS-PBS, and a diluted secondary antibody PE anti-human IgG FC (Biolegend, 409304) was added with a final concentration of 8 ug/ml and a volume of 50 μl/well. At the same time, a well only added with cells and secondary antibody was set as a control, the components were mixed well, and incubated under shaking at 1100 rpm/min at 4° C. for 1 h;
# (§3) 5) Data analysis: the data was analyzed by a flow analysis software FlowJo 7.6 thereby obtaining an average fluorescence intensity of the specific antibody concentration, plotted by a Graphpad Prism 5 with the antibody concentration (nM) as an abscissa and the average fluorescence intensity as an ordinate; the EC50 value was calculated by the method of One site—Specific binding, and the EC50 value indicated the cell affinity of the antibody to the corresponding target antigen.
row,Binder,EC50
1,B1,35.8 nM
2,B2,30.1 nM
3,B3,32.1 nM
4,B4,42.9 nM

# Target: T3, Human CD3ε (human, UniProt P07766 23-126)
# T3 construct: CD3 on T cells isolated from human whole blood
# Experiment: flow cytometry, human T cells
# In short: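 Mean fluorescence intensity by flow cytometry was plotted against antibody concentration; EC50 came from a one site–specific binding fit. Cells (2×10⁵/well) were incubated with 11-point, 3-fold antibody dilutions starting at 3000 nM for 2 h at 4° C, then with PE anti-human IgG Fc for 1 h.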
row,Binder,EC50
1,B5,550 nM
2,B6,448 nM
3,B7,534 nM
4,B8,351 nM
5,B9,599 nM
6,B10,400 nM
7,B1,624 nM
8,B2,646 nM
9,B3,688 nM
10,B4,639 nM

# Target: T2, Human BCMA
# Experiment: flow cytometry, human tumor cells (BCMA+)
# Description: as §1, §2, §3
row,Binder,EC50
1,B5,17.4 nM
2,B6,23.6 nM
3,B7,18.8 nM
4,B8,19.2 nM
5,B9,24 nM
6,B10,17 nM

# Target: T4, Monkey CD3 (monkey)
# T4 construct: whole, on cells; also called CD3 of monkey CD3 positive T cells
# Experiment: flow cytometry, monkey T cells
row,Binder,EC50
1,B5,501 nM
2,B6,636 nM
3,B7,641 nM
4,B8,510 nM
5,B9,716 nM
6,B10,461 nM

# Target: T4, Monkey CD3
# Experiment: flow cytometry, monkey T cells
# Remark: another data set of the same source
row,Binder,EC50
1,B1,757 nM
2,B2,662 nM
3,B3,798 nM
4,B4,732 nM
